Laboratory results: US20090053138A1, “Stabilized Aptamers to Platelet Derived Growth Factor and their Use as Oncology Therapeutics” (priority 2002, published 2009)
Strand notation (5' to 3'): a small letter for the sugar, then the base; units joined by * are phosphorothioate-linked, units joined directly phosphodiester-linked; [ ] holds rarer units or linkages, { } end groups; capitals alone tell only the bases. r = 2'-OH (RNA); f = 2'-fluoro

B1: ARX33P1.D2: PDGF-AA (short form) aptamer, 2′-fluoro pyrimidines (SEQ ID NO: 78) (nucleic acid)
chain: rGrGrGrArArArArGfCrGrArAfUfCrAfUrAfCrAfCrArArGrAfCfCrGrGrGrArAfCfUfCrGrGrAfUfUfCfUfUfCrGfCrAfUrGfUrGrGrAfUrGfCrGrAfUfCrArGfUrAfUrGfCfUfCfCrGfCfCrArGrArGrAfCfCrArAfCfCrGrArGrArA
B2: ARX33P1.E10: PDGF-AA (short form) aptamer, 2′-fluoro pyrimidines (SEQ ID NO: 80) (nucleic acid)
chain: rGrGrGrArArArArGfCrGrArAfUfCrAfUrAfCrAfCrArArGrAfCfCrGrGrArArAfCfUfCrGrGrAfUfUfCfUfUfCrGfCrAfUrGfUrGrGrAfUrGfCrGrAfUfCrArGfUrAfUrGfCfUfCfCrGfCfCrArGrArGrAfCfCrArAfCfCrGrArGrArA
B3: ARX33P1.E11: PDGF-AA selection clone, 2′-fluoro pyrimidines (SEQ ID NO: 81) (nucleic acid)
chain: rGrGrGrArArArArGfCrGrArAfUfCrAfUrAfCrAfCrArArGrArGrArGfUrGrGrArGrGrArGrGfUrAfUrGfUrAfUrGrGfUfUfUrGfUrGfCrGfUfCfUrGrGfUrGfCrGrGfUrGfCfUfCfCrGfCfCrArGrArGrAfCfCrArAfCfCrGrArGrArA
modifications: aptamer
B4: ARX33P1.E5: PDGF-AA (short form) aptamer, 2′-fluoro pyrimidines (SEQ ID NO: 79) (nucleic acid)
chain: rGrGrGrArArArArGfCrGrArAfUfCrAfUrAfCrAfCrArArGrAfCfCrGrGrGrArAfCfUfCrGrGrAfUfUfCfUfUfCrAfCrAfUrGfUrGrGrAfUrGfUrGrAfUfCrArGfUrAfUrGfCfUfCfCrGfCfCrArGrArGrAfCfCrArAfCfCrGrArGrArA
B5: ARX33P1.D1: PDGF-AA selection clone, 2′-fluoro pyrimidines (SEQ ID NO: 77) (nucleic acid)
chain: rGrGrGrArArArArGfCrGrArAfUfCrAfUrAfCrAfCrArArGrAfUfCrGfCfCrArGrGrArGfCrArArArGfUfCrAfCrGrGrArGrGrArGfUrGrGrGrGrGfUrAfCrGrArAfUrGfCfUfCfCrGfCfCrArGrArGrAfCfCrArAfCfCrGrArGrArA
modifications: aptamer

Columns and labels:
[1] = biological target: T1, PDGF-AA (Homo sapiens, UniProt P04085); assay: 3T3 proliferation assay (PDGF-AA induced); type: cell-based; conditions: aptamer 0-1 uM, PDGF-AA 50 ng/ml
T1 construct: purchased R&D Systems
Procedure: The assay was set up as previously described, using a titration of PDGF-AA aptamer (0-1 uM) against a constant concentration (50 ng/ml) of PDGF-AA protein (R&D Systems).

[2] = biological target: PDGF-AA (rat) (Rattus norvegicus, UniProt P28576); assay: Dot blot binding assay, PDGF-AA rat; conditions: in the presence of 0.1 mg/mL tRNA
Procedure: (§1) Dot blot binding assays were performed throughout the selection to monitor the protein binding affinity of the pool. Trace ^32P-labeled RNA was combined with PDGF-AA and incubated at room temperature for 30 min in 1×SHMCK plus 0.1 mg/ml tRNA for a final volume of 20 μl. The reaction was added to a dot blot apparatus (Schleicher and Schuell Minifold-1 Dot Blot, Acrylic), assembled (from top to bottom) with nitrocellulose, nylon, and gel blot membranes. RNA that is bound to protein is captured on the nitrocellulose filter, whereas the non-protein bound RNA is captured on the nylon filter. When a significant positive ratio of binding of RNA in the presence of PDGF-AA versus in the absence of PDGF-AA was seen, the pool was cloned using the TOPO TA cloning kit (Invitrogen, Carlsbad. CA) according to the manufacturer's instructions. The Round 10 pool template was cloned, and 17 sequences were obtained. Only five different sequences were seen, with two major families and one unique sequence (not of the two families). […] Clones with high affinity to PDGF-AA were prepped and screened for functionality in cell-based assays.

[3] = biological target: T2, PDGF-AA (human short form) (Homo sapiens, UniProt P04085); assay: Dot blot binding assay, PDGF-AA human short form; conditions: in the presence of 0.1 mg/mL tRNA
T2 construct: purchased Roche Biomedical
Procedure: as §1

Molecule | inhibition of PDGF-AA induced 3T3 cell proliferation [1] | Kd [2] | Kd [3] | PDGF-AA (rat) Kd (nM) [2] | PDGF-AA (human short form) Kd (nM) [3]
B1 | do inhibit PDGF-AA induced 3T3 cell proliferation, but are not very potent | 51.7 nM | 104 nM |  | 
B2 | do inhibit PDGF-AA induced 3T3 cell proliferation, but are not very potent | 47.1 nM | 133 nM |  | 
B3 |  |  |  | N.B. | N.B.
B4 | do inhibit PDGF-AA induced 3T3 cell proliferation, but are not very potent | 57.4 nM | 117 nM |  | 
B5 |  |  |  | N.B. | N.B.
